Reference: US20160010147, “ENZYME STALLING METHOD” (OXFORD NANOPORE TECHNOLOGIES LIMITED, published 2016)

Assays:
[1] = target: T1, T4 Dda-E94C/A360C helicase (Enterobacteria phage T4, UniProt P32270 SEQ:1-439, E94C/A360C, then (ΔM1)G1G2); assay: EMSA; one enzyme bound only at 312.5-5000 nM; 1 uM DNA; 25 mM phosphate pH 8.0, 151.5 mM KCl; conditions: 5' ssDNA overhang with duplex
T1 sequence: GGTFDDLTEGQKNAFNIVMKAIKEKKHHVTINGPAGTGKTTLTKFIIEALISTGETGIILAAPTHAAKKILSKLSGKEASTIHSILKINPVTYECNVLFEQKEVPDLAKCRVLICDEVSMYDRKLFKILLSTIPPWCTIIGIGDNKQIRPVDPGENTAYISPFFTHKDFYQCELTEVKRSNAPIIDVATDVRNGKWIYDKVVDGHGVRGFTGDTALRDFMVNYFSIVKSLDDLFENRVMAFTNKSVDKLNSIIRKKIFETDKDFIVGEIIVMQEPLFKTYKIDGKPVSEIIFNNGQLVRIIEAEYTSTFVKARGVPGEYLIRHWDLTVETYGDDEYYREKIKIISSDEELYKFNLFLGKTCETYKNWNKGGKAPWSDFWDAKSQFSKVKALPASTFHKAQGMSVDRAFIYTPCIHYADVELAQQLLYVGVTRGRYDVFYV
Experimental: (§1) DNA constructs (1 μM or 100 nM final concentration) detailed below in Table 12 were incubated in appropriate buffer with serially diluted T4 Dda-E94C/A360C. The samples were then loaded on 4-20% TBE gels and run at 160 V for 90 minutes. The gels containing entries 1-6 were then stained using SYBR. […] The length of the region labelled 1 is varied from 2 to 50 to optimise conditions so that it is possible to control the number of T4 Dda-E94C/A360C helicases which can bind to the DNA,

[2] = target: T1, T4 Dda-E94C/A360C helicase; assay: EMSA; two enzymes bound at 625-5000 nM, one at 312.5 nM; 1 uM DNA; conditions: 5' ssDNA overhang with duplex
Experimental: as §1

[3] = target: T1, T4 Dda-E94C/A360C helicase; assay: EMSA; up to five helicases bound; ATP/MgCl2 gives strand displacement; conditions: 50 nt ssDNA overhang with duplex
Experimental: (§2) The annealed DNA complexes (sequences tested are shown in table 11 below) were mixed in a ratio of (1:1, v/v) with T4 Dda-E94C/A360C in 25 mM phosphate pH 8.0, 200 mM KCl giving final concentrations of T4 Dda-E94C/A360C (2000 nM) and DNA (100 nM). The helicase was allowed to bind to the DNA for 2 hours at ambient temperature. Capture strand (SEQ ID NO: 37, 20 μM) was added to each sample to bind any unbound enzyme and the samples incubated at ambient temperature for 30 mins. Buffer was added to the samples (DNA construct from table 11=50 nM, capture DNA (SEQ ID NO: 37)=10 μM and T4 Dda-E94C/A360C=1000 nM) and they were incubated at ambient temperature for one hour (either Buffer 1=25 mM phosphate pH 8.0, 200 mM KCl, 20 mM MgCl2, 10 mM ATP or Buffer 2=25 mM phosphate pH 8.0, 1 M KCl, 25 mM potassium ferricyanide(III), 75 mM potassium ferrocyanide, 20 mM MgCl2, 10 mM ATP). Loading buffer (25 mM Phosphate pH8.0, 151.5 mM KCl, 25% Glycerol, 125 mM EDTA) is added to each sample to quench the helicase activity. The samples were loaded onto 4-20% TBE gel and the gel run at 160 V for 1.5 hours. The Gel was then stained with SYBR gold in order to observe the DNA bands.

[4] = target: T1, T4 Dda-E94C/A360C helicase; assay: EMSA; up to five helicases bound; one helicase stalled after ATP/MgCl2; conditions: 50 nt ssDNA overhang with duplex
Experimental: as §2

[5] = target: T1, T4 Dda-E94C/A360C helicase; assay: EMSA; up to five helicases bound; one, faintly two, stalled after ATP/MgCl2; conditions: 50 nt ssDNA overhang with duplex
Experimental: as §2

[6] = target: T1, T4 Dda-E94C/A360C helicase; assay: EMSA; one helicase stalled in at least one buffer with ATP/MgCl2; conditions: 50 nt ssDNA overhang with duplex
Experimental: as §2

[7] = target: T1, T4 Dda-E94C/A360C helicase; assay: EMSA; up to six enzymes bound at 5000 nM; 1 uM DNA; conditions: 5' ssDNA overhang with duplex
Experimental: as §1

[8] = target: T1, T4 Dda-E94C/A360C helicase; assay: EMSA; unbound DNA only up to 3750 nM; 1 uM DNA; conditions: 5' ssDNA overhang with duplex
Experimental: as §1

[9] = target: T1, T4 Dda-E94C/A360C helicase; assay: EMSA; up to two enzymes bound; one faint at 169 nM; 100 nM DNA; conditions: 5' ssDNA overhang with duplex
Experimental: as §1

[10] = target: T1, T4 Dda-E94C/A360C helicase; assay: EMSA; up to two enzymes bound; unbound only at 169 nM; 100 nM DNA; conditions: 5' ssDNA overhang with duplex
Experimental: as §1

[11] = target: T1, T4 Dda-E94C/A360C helicase; assay: EMSA; one helicase bound from 238 nM, two from 475 nM up to 3800 nM; 100 nM DNA; conditions: two 10T ssDNA regions
Experimental: T4 Dda E94C/A360C was buffer exchanged into 25 mM phosphate pH 8.0, 151.5 mM KCl and serially diluted. The helicase and DNA were then mixed (1:1, v/v) with the DNA construct samples 9 and 10 described above (final concentration DNA=100 nM, helicase concentrations investigated=3800 nM, 1900 nM, 950 nM, 475 nM, 238 nM, 0 nM). The DNA and enzyme volumes were then incubated at ambient temperature for 1.5 hours. Dye free loading buffer (5×, 7.5 μL) was added to each sample (30 μL). Each sample (37.5 μL) was then loaded onto 4-20% TBE gel and run at 160 V for 90 minutes. The gel was then stained using SYBR.

B1: Table 12 construct 1 (10T region) (mixed)
DNA 1: TTTTTTTTTTTCGCTGCTCCACAGGTCTCAGCTTGAGCAGCGA
DNA 2: TCGCTGCTCAAGCTGAGACCTGTGGAGCAGCGA
modifications: 5 iSpC3 at 5' end; 4 iSpC3 between SEQ 37 and SEQ 36
binding result [1]: binds

B2: Table 12 construct 2 (20T region) (mixed)
DNA 1: TTTTTTTTTTTTTTTTTTTTTCGCTGCTCCACAGGTCTCAGCTTGAGCAGCGA
DNA 2: TCGCTGCTCAAGCTGAGACCTGTGGAGCAGCGA
modifications: 5 iSpC3 at 5' end; 4 iSpC3 between SEQ 38 and SEQ 36
binding result [2]: binds

B3: Table 11 construct 1 (no spacers) (mixed)
DNA 1: TTTTTTTTTTTTTTTTTTTTTTTTTTTTTTTTTTTTTTTTTTTTTTTTTTTCGCTGCTCCACAGGTCTCAGCTTGAGCAGCGA
DNA 2: TCGCTGCTCAAGCTGAGACCTGTGGAGCAGCGA
binding result [3]: binds

B4: Table 11 construct 7 (3 iSp18) (mixed)
DNA 1: TTTTTTTTTTTTTTTTTTTTTTTTTTTTTTTTTTTTTTTTTTTTTTTTTTTCGCTGCTCCACAGGTCTCAGCTTGAGCAGCGA
DNA 2: TCGCTGCTCAAGCTGAGACCTGTGGAGCAGCGA
modifications: 3 iSp18 between SEQ 9 and SEQ 36
binding result [4]: binds

B5: Table 11 construct 8 (4 iSp18) (mixed)
DNA 1: TTTTTTTTTTTTTTTTTTTTTTTTTTTTTTTTTTTTTTTTTTTTTTTTTTTCGCTGCTCCACAGGTCTCAGCTTGAGCAGCGA
DNA 2: TCGCTGCTCAAGCTGAGACCTGTGGAGCAGCGA
modifications: 4 iSp18 between SEQ 9 and SEQ 36
binding result [5]: binds

B6: Table 11 construct 9 (5 iSp18) (mixed)
DNA 1: TTTTTTTTTTTTTTTTTTTTTTTTTTTTTTTTTTTTTTTTTTTTTTTTTTTCGCTGCTCCACAGGTCTCAGCTTGAGCAGCGA
DNA 2: TCGCTGCTCAAGCTGAGACCTGTGGAGCAGCGA
modifications: 5 iSp18 between SEQ 9 and SEQ 36
binding result [5]: binds

B7: Table 11 construct 2 (4 iSpC3) (mixed)
DNA 1: TTTTTTTTTTTTTTTTTTTTTTTTTTTTTTTTTTTTTTTTTTTTTTTTTTTCGCTGCTCCACAGGTCTCAGCTTGAGCAGCGA
DNA 2: TCGCTGCTCAAGCTGAGACCTGTGGAGCAGCGA
modifications: 4 iSpC3 between SEQ 9 and SEQ 36
binding result [6]: binds

B8: Table 11 construct 3 (8 iSpC3) (mixed)
DNA 1: TTTTTTTTTTTTTTTTTTTTTTTTTTTTTTTTTTTTTTTTTTTTTTTTTTTCGCTGCTCCACAGGTCTCAGCTTGAGCAGCGA
DNA 2: TCGCTGCTCAAGCTGAGACCTGTGGAGCAGCGA
modifications: 8 iSpC3 between SEQ 9 and SEQ 36
binding result [6]: binds

B9: Table 11 construct 4 (12 iSpC3) (mixed)
DNA 1: TTTTTTTTTTTTTTTTTTTTTTTTTTTTTTTTTTTTTTTTTTTTTTTTTTTCGCTGCTCCACAGGTCTCAGCTTGAGCAGCGA
DNA 2: TCGCTGCTCAAGCTGAGACCTGTGGAGCAGCGA
modifications: 12 iSpC3 between SEQ 9 and SEQ 36
binding result [6]: binds

B10: Table 11 construct 5 (1 iSp18) (mixed)
DNA 1: TTTTTTTTTTTTTTTTTTTTTTTTTTTTTTTTTTTTTTTTTTTTTTTTTTTCGCTGCTCCACAGGTCTCAGCTTGAGCAGCGA
DNA 2: TCGCTGCTCAAGCTGAGACCTGTGGAGCAGCGA
modifications: 1 iSp18 between SEQ 9 and SEQ 36
binding result [6]: binds

B11: Table 11 construct 6 (2 iSp18) (mixed)
DNA 1: TTTTTTTTTTTTTTTTTTTTTTTTTTTTTTTTTTTTTTTTTTTTTTTTTTTCGCTGCTCCACAGGTCTCAGCTTGAGCAGCGA
DNA 2: TCGCTGCTCAAGCTGAGACCTGTGGAGCAGCGA
modifications: 2 iSp18 between SEQ 9 and SEQ 36
binding result [6]: binds

B12: Table 12 construct 3 (50T region) (mixed)
DNA 1: TTTTTTTTTTTTTTTTTTTTTTTTTTTTTTTTTTTTTTTTTTTTTTTTTTTCGCTGCTCCACAGGTCTCAGCTTGAGCAGCGA
DNA 2: TCGCTGCTCAAGCTGAGACCTGTGGAGCAGCGA
modifications: 5 iSpC3 at 5' end; 4 iSpC3 between SEQ 9 and SEQ 36
binding result [7]: binds

B13: Table 12 construct 4 (2T region) (mixed)
DNA 1: TTTCGCTGCTCCACAGGTCTCAGCTTGAGCAGCGA
DNA 2: TCGCTGCTCAAGCTGAGACCTGTGGAGCAGCGA
modifications: 5 iSpC3 at 5' end; 4 iSpC3 between TT and SEQ 36
binding result [8]: no binding

B14: Table 12 construct 5 (4T region) (mixed)
DNA 1: TTTTTCGCTGCTCCACAGGTCTCAGCTTGAGCAGCGA
DNA 2: TCGCTGCTCAAGCTGAGACCTGTGGAGCAGCGA
modifications: 5 iSpC3 at 5' end; 4 iSpC3 between T4 and SEQ 36
binding result [8]: no binding

B15: Table 12 construct 7 (16T region) (mixed)
DNA 1: TTTTTTTTTTTTTTTTTCGCTGCTCCACAGGTCTCAGCTTGAGCAGCGA
DNA 2: TCGCTGCTCAAGCTGAGACCTGTGGAGCAGCGA
modifications: 5 iSpC3 at 5' end; 4 iSp18 between SEQ 39 and SEQ 36
binding result [9]: binds

B16: Table 12 construct 8 (18T region) (mixed)
DNA 1: TTTTTTTTTTTTTTTTTTTCGCTGCTCCACAGGTCTCAGCTTGAGCAGCGA
DNA 2: TCGCTGCTCAAGCTGAGACCTGTGGAGCAGCGA
modifications: 5 iSpC3 at 5' end; 4 iSp18 between SEQ 40 and SEQ 36
binding result [10]: binds

B17: Table 16 construct 9 (non-forked) (mixed)
DNA 1: TTTTTTTTTTTTTTTTTTTTGGTTGTTTCTGTTGGTGCTGATATTGCGCCATCAGATTGTGTTTGTTAGTCGCT
DNA 2: GCAATATCAGCACCAACAGAAACAACC
DNA 3: AGCGACTAACAAACACAATCTGATGGC
modifications: 25 SpC3 at 5' end; 2 iSp18 after each SEQ 37; 4 nitroindoles between SEQ 10 and SEQ 41
binding result ([11]; two duplexes): binds

B18: Table 16 construct 10 (forked) (mixed)
DNA 1: TTTTTTTTTTTTTTTTTTTTGGTTGTTTCTGTTGGTGCTGATATTGCGCCATCAGATTGTGTTTGTTAGTCGCT
DNA 2: GCAATATCAGCACCAACAGAAACAACCT
DNA 3: AGCGACTAACAAACACAATCTGATGGC
modifications: 25 SpC3 at 5' end; 2 iSp18 after each SEQ 37; 4 nitroindoles between SEQ 10 and SEQ 41; 6 iSp18 at 3' end of SEQ 12
binding result ([11]; forked duplex): binds
